Molecular target: FGFR on smooth muscle cells (SMC) isolated from bovine aorta (bovine)
Assay: cell-based or functional assay

| molar concentration required to achieve half maximal proliferation of SMC ([3H] thymidine incorporation, no chlorate) [pM] | fold activity in promoting SMC proliferation compared to wild-type FGF2 [fold] | proliferation of chlorate-treated (HLGAG-depleted) SMC, percent of full proliferation [%] | Substance |
| --- | --- | --- | --- |
| 270 |  |  | Recombinant human wild-type FGF2 (ligand) |
| 60 | 4.5 | 80 | dFGF2, tandemly-linked dimeric FGF2, as purified with N-terminal His tag and C-terminal T7 tag (ligand) |

From patent publication US20030008820A1
